Target: T1, CD70 (human, UniProt P32970 1-193)
T1 sequence (looked up): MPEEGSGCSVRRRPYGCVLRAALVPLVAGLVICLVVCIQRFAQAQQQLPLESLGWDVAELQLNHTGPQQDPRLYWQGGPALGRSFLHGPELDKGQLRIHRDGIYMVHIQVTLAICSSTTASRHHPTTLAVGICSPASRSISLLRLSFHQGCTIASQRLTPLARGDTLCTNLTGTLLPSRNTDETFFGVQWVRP
Assay: cell-based or functional assay

B1: ARGX-110 (cusatuzumab) (antibody, V domains shown)
VH: EVQLVESGGGLVQPGGSLRLSCAASGFTFSVYYMNWVRQAPGKGLEWVSDINNEGGTTYYADSVKGRFTISRDNSKNSLYLQMNSLRAEDTAVYYCARDAGYSNHVPIFDSWGQGTLVTVSS
VL: QAVVTQEPSLTVSPGGTVTLTCGLKSGSVTSDNFPTWYQQTPGQAPRLLIYNTNTRHSGVPDRFSGSILGNKAALTITGAQADDEAEYFCALFISNPSVEFGGGTQLTVLG
- IC50 of killing of MOLM-13 AML cells in the presence of CFSE-labelled NK cells (ratio 1:1): 0.68 µg/mL
- IC50 of killing of MV4-11 AML cells in the presence of CFSE-labelled NK cells (ratio 1:1): 1.2 µg/mL
- IC50 of killing of NB4 AML cells in the presence of CFSE-labelled NK cells (ratio 1:1): 0.3 µg/mL
- IC50 of killing of NOMO-1 AML cells in the presence of CFSE-labelled NK cells (ratio 1:1): 0.14 µg/mL

— patent publication US20200222532A1 (ARGENX, published 2020)
